9 molecules from US20260234247A1 (published 2026) can be followed below.

The koff is the rate constant with which the complex falls apart.

The target of test [1] is T1, Biotinylated LILRB2 (UniProt Q8N423 22-460, limits assumed, biotinylated (sites not given)).
T1 construct: also called biotinylated-LILRB2 protein
As to the kind of experiment: epitope binning ELISA; coated antibody 1 ug/ml, biotinylated LILRB2; competitor LK-RB2-24 at 20 ug/ml. Background: In an ELISA, binding on a coated surface is turned into a signal by an enzyme label.

The target in test [2] is T1, Biotinylated LILRB2. As to the kind of experiment: epitope binning ELISA; coated antibody 1 ug/ml, biotinylated LILRB2; competitor J19.h1 at 20 ug/ml.
Method: (§1) Binding epitope of a subset of anti-LILRB1 and anti-LILRB2 antibodies was analyzed by epitope binning ELISA. Briefly, a panel of testing antibodies were coated onto ELISA plate. 50 ul/well Biotinylated LILRB1 or LILRB2 and 50 ul/well of competing antibodies were added to the coated plate and incubated at 37° C. for 1 hour. After Streptavidin-HRP (1:5000) incubation and TMB development, the plates were read at 450 nm using Molecular device spectra max plus384.
The target in test [3] is T1, Biotinylated LILRB2. The experiment in a line: epitope binning ELISA; coated antibody 1 ug/ml, biotinylated LILRB2; competitor LK-RB2-2 at 20 ug/ml.
Method: as §1
Test [4] addresses T1, Biotinylated LILRB2. The experiment in a line: epitope binning ELISA; coated antibody 1 ug/ml, biotinylated LILRB2; competitor LK-RB2-15 at 20 ug/ml.
Method: as §1
In test [5] the target is T1, Biotinylated LILRB2. The experiment in a line: epitope binning ELISA; coated antibody 1 ug/ml, biotinylated LILRB2; competitor LK-RB2-14 at 20 ug/ml.
Method: as §1
The target of test [6] is T1, Biotinylated LILRB2. The experiment in a line: epitope binning ELISA; coated antibody 1 ug/ml, biotinylated LILRB2; competitor hz73D1.v1 at 20 ug/ml.
Method: as §1
Test [7] deals with T1, Biotinylated LILRB2. The experiment in a line: epitope binning ELISA; coated antibody 1 ug/ml, biotinylated LILRB2; competitor LK-RB2-3 at 20 ug/ml.
Method: as §1
In test [8] the target is T2, Biotinylated LILRB1 (UniProt Q8NHL6 24-458, limits assumed, biotinylated (sites not given)). The experiment in a line: epitope binning ELISA, coated 1 ug/ml; competitor LK-RB1-9 at 20 ug/ml.
The target in test [9] is T2, Biotinylated LILRB1. As to the kind of experiment: epitope binning ELISA, coated 1 ug/ml; competitor LK-RB1-47 at 20 ug/ml.
Method: as §1
In test [10] the target is T2, Biotinylated LILRB1. The experiment in a line: epitope binning ELISA, coated 1 ug/ml; competitor LK-RB1-12 at 20 ug/ml.
Method: as §1
In test [11] the target is T2, Biotinylated LILRB1. As to the kind of experiment: epitope binning ELISA, coated 1 ug/ml; competitor LK-RB1-33 at 20 ug/ml.
Method: as §1
The target of test [12] is T2, Biotinylated LILRB1. As to the kind of experiment: epitope binning ELISA, coated 1 ug/ml; competitor LK-RB1-16 at 20 ug/ml.
Method: as §1
The target of test [13] is T2, Biotinylated LILRB1. The experiment in a line: epitope binning ELISA, coated 1 ug/ml; competitor LK-RB1-31 at 20 ug/ml.
Method: as §1
The target in test [14] is T3, human LILRB1 (human, UniProt Q8NHL6 24-458, limits assumed).
T3 construct: also called hLILRB1
The experiment in a line: Octet off-rate ranking.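 Also: antibody dissociation rate constants against cynomolgus LILRB2 plus human LILRB1, LILRB2, LILRA1 and LILRA2, measured on an Octet instrument to rank binding.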 A general note: Biolayer interferometry detects binding as a change in optical thickness at a sensor tip.
From the text: Binding affinity of anti-LILRB1 and anti-LILRB2 antibodies against human LILRB1, LILRB2, LILRA1, LILRA2 and cynomolgus LILRB2 was ranked by measuring dissociation rate constant (Kdis) using the Octet system.

The target in test [15] is T2, Biotinylated LILRB1. As to the kind of experiment: epitope binning ELISA, coated 1 ug/ml; competitor hz73D1.v1 at 20 ug/ml.
Method: as §1
The target of test [16] is T2, Biotinylated LILRB1. The experiment in a line: epitope binning ELISA, coated 1 ug/ml; competitor 15G8 at 20 ug/ml.
Method: as §1

T1 sequence (Q8N423 22-460 limits assumed): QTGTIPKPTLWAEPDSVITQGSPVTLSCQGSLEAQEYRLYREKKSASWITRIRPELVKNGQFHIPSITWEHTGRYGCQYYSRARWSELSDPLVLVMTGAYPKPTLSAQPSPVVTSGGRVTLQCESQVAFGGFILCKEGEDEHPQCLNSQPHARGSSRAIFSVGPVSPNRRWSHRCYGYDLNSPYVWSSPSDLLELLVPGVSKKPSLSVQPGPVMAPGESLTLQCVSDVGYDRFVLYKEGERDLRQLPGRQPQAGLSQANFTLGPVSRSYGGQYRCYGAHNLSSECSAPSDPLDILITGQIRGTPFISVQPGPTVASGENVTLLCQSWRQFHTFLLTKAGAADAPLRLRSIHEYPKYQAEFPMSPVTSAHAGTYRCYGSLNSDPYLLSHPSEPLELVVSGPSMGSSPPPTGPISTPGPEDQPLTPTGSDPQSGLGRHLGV
T3 sequence (Q8NHL6 24-458 limits assumed): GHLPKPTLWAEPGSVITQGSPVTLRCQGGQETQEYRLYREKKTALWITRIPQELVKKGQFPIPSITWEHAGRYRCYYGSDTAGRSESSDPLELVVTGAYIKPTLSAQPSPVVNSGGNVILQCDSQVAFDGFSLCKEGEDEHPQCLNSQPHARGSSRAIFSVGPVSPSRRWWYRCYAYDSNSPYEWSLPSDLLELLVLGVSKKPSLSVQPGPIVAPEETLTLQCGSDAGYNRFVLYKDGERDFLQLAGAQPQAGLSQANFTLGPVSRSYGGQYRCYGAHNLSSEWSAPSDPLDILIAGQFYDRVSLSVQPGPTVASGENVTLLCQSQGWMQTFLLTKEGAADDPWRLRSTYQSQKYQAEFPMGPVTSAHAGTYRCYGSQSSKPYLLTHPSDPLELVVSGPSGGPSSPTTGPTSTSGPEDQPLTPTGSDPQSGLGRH
T2 sequence (Q8NHL6 24-458 limits assumed): as above

B1: LK-RB2-14 (antibody, human IgG4 S228P, kappa, V domains shown)
VH: QVQLKQSGPGLVQPSQSLSITCTVSGFSLTSYGVHWVRQSPGKGLEWLGVIWRGGSTDYNAAFMSRLSITKDNSKSQVFFKMNSLQADDTAIYYCAKNEGDSTVVAWYFDVWGTGTTVTVSS
VL: DIQMTQTTSSLSASLGDRVTISCSASQGISNYLNWFQQKPDGTVKLLIYYTSSLHSGVPSRFSGSGSGTDYSLTISNLEPEDIATYYCQQYSKLPLTFGAGTKLELKR
notes: Anti-LILRB2 antibody from mouse hybridoma
As for B1, the Inhibition % stood at 94.3% in [1]; 77.4% in test [2]; 97.7% in test [3]; 91.1% in test [4]; 90.6% in [5]; 92.7% in test [6]. For the same molecule, the Inhibition % in test [7] came out at 29.8%.

B2: LK-RB2-3 (antibody, human IgG4 S228P, kappa, V domains shown)
VH: QLQLQQSDAELVKPGASVKISCKVSGYSFTDHTIHWMKQRPEQGLEWIGYIYPRDGSTKENEKFTGKATLTADKSSSTAYMQLTSLTSEDSAVYFCTGSGFDYWGQGTSLTVSS
VL: DIKMTQSPSSMYASLGERVTITCKASQDIKSYLSWFQQKPGKSPKTLIYRANRLVDGVPSRFSGSGSGQDYSLTINSLEYEDMEIYYCLQYDEFPYTFGGGTKLEIKR
notes: as for B1
Regarding B2, the Inhibition % in test [1] amounted to 32.2%; in test [2], 9.71%; in test [3], 96.9%; in test [4], 5%; in test [5] it was 24.9%; in test [6] it was 33.7%. In [7], the Inhibition % turned out to be 96.7%.

B3: LK-RB1-31 (antibody, human IgG4 S228P, kappa, V domains shown)
VH: QVQLKESGPGLVAPSQSLSITCTVSGFSLTSYGVSWVRQPPGKGLEWLGIIWGDGSTNYHSALKSRLSISKDNSKSQVFLKLNSLQTEDTATYYCAKPNWDYYAMDYWGQGTSVTVSS
VL: DIQMTQTTSSLSASLGDRVTISCRASQDISNYLNWYLQKPDGTVKLLIYYTSRLHSGVPSRFSGSGSGTDYSLTISNLEQEDIATYFCQQGITLPCTFGGGTKLEIKR
Consider B3, for which the Inhibition % worked out at 10.5% in test [8]; 5.86% in test [9]; 87.4% in [10]; 1.14% in [11]; 75.7% in [12]; 64.4% in [13]. Also, the figures for the Inhibition % in test [15] and in [16] were 54.1% and -1.73%, respectively. This molecule also yielded an off-rate constant (koff) in [14] of 6.77e-05 s⁻¹.

B4: LK-RB1-47 (antibody, human IgG4 S228P, kappa, V domains shown)
VH: QIQLVQSGPELKKPGETVKISCKASGYTFTTYGMSWVKQAPGKGLKWMGWINTYSGVPTYTDDFKGRFAFSVETSASTAYLQINNLKNEDTATYFCARRERDFYGNIFFPYWGQGSLVTVSA
VL: DIQMTQTTSSLSASLGDRVTISCRASQDISNYLNWYQQKPDGTVKLLIYYTSRIHSGVPSRFSGSGSGTDFSLTISNLDQEDIATYFCQQGHTLPWTFGGGTKVEIKR
Take B4: the Inhibition % in [8] was determined as 31.8%; in [9] it was 89.8%; in test [10] it was 82.1%; in [11], 21.7%; in test [12] it was 1.24%; in test [13], 0.59%. For the same molecule, the Inhibition % in test [15] is 74.8%; in test [16], 5.8%. Moreover, the koff in test [14] was determined as 0.000828 s⁻¹.

B5: hz73D1.v1 (antibody, human IgG4 S228P, kappa, V domains shown)
VH: QVQLVQSGAEVKKPGASVKVSCKASGYTFTDYYINWVRQAPGQGLEWMGNVNPNDGGTTYNQKFKGRVTMTTDTSTSTAYMELRSLRSDDTAVYYCARREIYFYGTIYYYAMDYWGQGTLVTVSS
VL: DIQLTQSPSFLSASVGDRVTITCRASESVDYYGNSFMYWYQQKPGKAPKLLIYFASNLESGVPSRFSGSGSGTEFTLTISSLQPEDFATYYCQQNNEDPWTFGGGTKVEIKR
Regarding B5, the Inhibition % in [1] was 22.4%; in test [2], 74.8%; in test [3] it was 97.8%; in [4], 6.43%; in test [5], 91.8%; in test [6], 96.8%. For the same molecule, the Inhibition % in test [7] came out at 65.3%.

B6: LK-RB2-15 (antibody, human IgG4 S228P, kappa, V domains shown)
VH: QIQLVQSGPELKKPGETVKISCKASGYTFTTYGMSWVKQAPGKGLKWMGWINVYSGVPTYADDFKGRFAFSLEISASTAYLQINNLKDEDTATYFCARRKDYSGHCFDYWGQGTTLTVSS
VL: DIVLTQSPASLAVSLGQRATFSCRASESVDTYGISFMHWYQQKPGQPPKLLIYRASNLESGIPARFSGSGSRTDFTLTINPVETDDVATYYCQQSKKEPYTFGGGTKLEIKR
notes: as for B1
In the case of B6, the Inhibition % was determined as 96.8% in [1]; 8% in test [2]; 47.1% in test [3]; 94.3% in [4]; 85.4% in test [5]; 15.1% in [6]. For the same molecule, the Inhibition % in test [7] was 22.1%.

B7: LK-RB1-16 (antibody, human IgG4 S228P, kappa, V domains shown)
VH: QVQLKESGPGLVAPSQSLSITCTVSGFSLISNAISWVRQPPGKGLEWLGVIWGDGNTIYHSALRSRLTISKDNSKSQVFLKLNSLQIDDTATYYCAKANWDGYYFDYWGQGTTLTVSS
VL: DIQMNQSPSSLSASLGDTITITCHASQSVDFWLNWYQQKPGNIPKLLISKASNLHTGVPSRFSGSGSGTTFTLTISSLQPEDIATYYCQQGQSYPLTFGSGTKLEIKR
As for B7, the Inhibition % in test [8] is 0.98%; in [9], 2.23%; in test [10] it was 12.5%; in test [11] it was -0.04%; in [12], 42.9%; in [13] it was 3.39%. Further, the Inhibition % in test [15] was found to be 1.48%; in test [16], 0.37%. The same molecule came in with a koff in [14] of 5.92e-05 s⁻¹.

B8: LK-RB1-12 (antibody, human IgG4 S228P, kappa, V domains shown)
VH: QVQLQQSGTELVRPGSSVMISCKASGYAFSTYWMDWVKQRPGQGLEWIGQIYPGDGATNYNGKFKGKATLTADKSSITAYMHLSSLTSEDSAVYFCLRSRDYDGWFFDVWGAGTTVTVSS
VL: DIVMTQSHKFMSTSIGDRVSITCKASQDVSSAVAWYQQKPGQSPKLLIYWASTRHTGVPDRFTGSGSGTDYTLTFSSVQAEDLALYYCQQHYSTPWTFGGGTKLEIKR
For the molecule B8, the Inhibition % in [8] was found to be 84.5%; in test [9] it was 83.2%; in test [10] it was 90.3%; in test [11], 75.3%; in test [12] it was 88%; in test [13], 83%. Also, the figures for the Inhibition % in test [15] and in test [16] were 77.3% and -9.78%, respectively. The same molecule yielded a koff in test [14] of 0.00126 s⁻¹.

B9: LK-RB1-33 (antibody, human IgG4 S228P, kappa, V domains shown)
VH: QIQLVQSGPELKKPGDTVKISCKASGYTFTSYGMNWVKQAPGEGLKWMGWINTYSGVPTYGDDFKGRFAFSLETSASTAYLQINNLENEDTATYFCARRGRDSVVGHFDVWGTGTTVTVSS
VL: DIVMTQSHKFMSTSVGDRVSITCKASQDVNTAVAWYQQKPGQSPKLLIYWASTRHTGVPDRFTGSGSGTDFTLTISSVQAEDLALYYCQQHYTIPFTFGSGTRLEIKR
For B9, the Inhibition % came out at 94.8% in [8]; 96.5% in test [9]; 68.8% in test [10]; 96% in test [11]; 3.49% in test [12]; 4.35% in test [13]. The Inhibition % in test [15] is 88.7%; in test [16], 72.2%. In addition, in test [14], the koff was 0.000155 s⁻¹.
